# Measured values published in patent EP4796567A2 (Nepenthe Bioscience, LLC, dated 2026).
# Residue numbers refer to the chain shown, from its start.
# T1: CD79 (UniProt P11912 33-143; P40259 29-159, limits assumed)
# T1 construct: also called CD79 antigen; soluble biotinylated CD79 antigen
# T1 sequence (looked up) 1: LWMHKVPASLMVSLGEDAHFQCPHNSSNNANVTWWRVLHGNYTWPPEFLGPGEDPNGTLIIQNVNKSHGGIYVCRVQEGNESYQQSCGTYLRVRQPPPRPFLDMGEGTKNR
# T1 sequence (looked up) 2: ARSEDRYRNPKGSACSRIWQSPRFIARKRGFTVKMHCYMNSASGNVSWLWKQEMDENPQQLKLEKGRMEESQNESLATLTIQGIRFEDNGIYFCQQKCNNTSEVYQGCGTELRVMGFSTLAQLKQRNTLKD
# B1: humanized anti-CD79 antibody H1L2 (antibody, V domains shown)
# VH: QVQLVQSGAEVKKPGASVKVSCKASGYAFSYSWMNWVRQAPGQGLEWMGRIYPENGDTNYNGKFKGRVTMTRDTSISTAYMELSRLRSDDTAVYYCARWVYGYPHFDYWGQGTLVTVSS
# VL: DVVMTQSPLSLPVTLGQPASISCKSSQSLLDSDGKTYLNWLQQRPGQSPRRLIYLVSKLDSGVPDRFSGSGSGTDFTLKISRVEAEDVGVYYCWQGTHFPFTFGGGTKVEIK
# notes: also called LB495/PRI47; PRI43/PRI47
# B2: engineered anti-CD79 antibody LB632/519 (antibody, V domains shown)
# VH: B1 VH with N55S, N61A, Y103L
# VL: B1 VL with F99L
# notes: Both NG motifs of VH CDR2 engineered; Produced in 293 cells by transient transfection; also called LB632/LB519
# B3: humanized anti-CD79 antibody LB517/LB519 (antibody, V domains shown)
# VH: B1 VH with Y103L
# VL: B1 VL with F99L
# notes: Full length IgG produced from 293 cells; also called hCur14 FALA
# What was measured:
# CD79 [1] = biological target: T1, CD79; test: binding kinetics to CD79; method not named (antibody is the 'Loading Sample')
# CD79 [2] = biological target: T1, CD79; test: antigen binding kinetics; method not named (antibody is the 'Loading Sample')
# CD79 [3] = biological target: T1, CD79; test: binding kinetics of full length IgG to CD79; method not named (antibody is the 'Loading Sample')
Binder,Kd (CD79 [1]) [nM],koff (CD79 [1]) [s⁻¹],kon (CD79 [1]) [M⁻¹ s⁻¹],Kd (CD79 [2]) [nM],koff (CD79 [2]) [s⁻¹],kon (CD79 [2]) [M⁻¹ s⁻¹],Kd (CD79 [3]) [nM],koff (CD79 [3]) [s⁻¹],kon (CD79 [3]) [M⁻¹ s⁻¹]
B1,45,0.0041,91000,9.22,0.000384,41700,5.1,0.000429,84100
B2,,,,0.837,5.11e-05,61000,,,
B3,,,,0.706,4.14e-05,58700,2,0.000159,79700
